{"source": "paper PMC5789003", "about": "“Structural and functional characterization of shaft, anchor, and tip proteins of the Mfa1 fimbria from the periodontal pathogen Porphyromonas gingivalis” (Scientific Reports, 2018)", "proteins": {"B1": {"name": "Mfa2 (anchor protein of the Mfa1 fimbria), wild type, in P. gingivalis (natural protein)", "chain": "CDKMIYDNYDDCPRGVYVNFYSQTECAENPSYPAEVARLNVYAFDKDGILRSANVFEDVQLSAAKEWLIPLEKDGLYTIFAWGNIDDHYNIGEIKIGETTKQQVLMRLKQDGKWATNIDGTTLWYATSPVVELKNMEDGADQYIHTRANLREYTNRVTVSVDSLPHPENYEIKLASSNGSYRFDGTVAKADSTYYPGETKVVGDSTCRAFFTTLKLESGHENTLSVTHKPTGREIFRTDLVGAILSSQYAQNINLRCINDFDIRLVAHHCNCPDDTYVVVQIWINGWLIHSYEIEL", "modifications": "lipidated cysteine (Cys29); disulphide bonds Cys54-Cys285 and Cys298-Cys300"}, "B2": {"name": "Mfa2 C285A (natural protein)", "chain": "B1 chain with C257A", "notes": "source: P. gingivalis Δmfa2Δfim complemented with mfa2C285A, whole cell lysate"}, "B3": {"name": "Mfa2 C54A (natural protein)", "chain": "B1 chain with C26A", "notes": "source: P. gingivalis Δmfa2Δfim complemented with mfa2C54A, whole cell lysate"}}, "note": "Substitutions are numbered along the chain they refer to. Where “and” joins values, the source holds several entries; their conditions need not be identical. Equal entries are not always repeated.", "data": [{"target": "the molecule itself", "assay": "SDS-PAGE and immunoblot of partially heat-denatured fimbriae (ladder-like pattern)", "values": [{"protein": "B1", "stoichiometry N": "2 and 3"}, {"protein": "B2", "stoichiometry N": "3 and 2"}, {"protein": "B3", "stoichiometry N": "2 and 3"}]}]}
